{"source": "paper PMC3240820", "biological_target": "C-terminal His-tagged Caskin1 SAM mutant G520E (human) (UniProt Q8WXD9)", "sequence (Q8WXD9 470-605 G520E)": "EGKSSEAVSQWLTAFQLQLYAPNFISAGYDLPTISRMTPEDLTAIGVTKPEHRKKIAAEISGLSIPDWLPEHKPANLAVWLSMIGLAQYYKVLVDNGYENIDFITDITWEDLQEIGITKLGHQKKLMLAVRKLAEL", "experiment": "SPR", "data": [{"substance": "Caskin1 SAM mutant G566K (from UniProt Q8WXD9 470-605) (domain or fragment)", "values": [{"measurement": "Kd", "value": 22, "unit": "µM"}]}]}
